Test results reported in article PMC10991105.

Substrate: CCCCCCCCCCCCCCCC(=O)Oc1ccc([N+](=O)[O-])cc1
Experiment: p-NPP hydrolysis, Lineweaver-Burk
Assay type: biochemical, Thermomyces lanuginosus
Conditions: free enzyme; p-NPP 0.05-0.5 mg/mL
Excerpt: p-NPP hydrolysis, Lineweaver-Burk on Thermomyces lanuginosus lipase (TLLs)

B1: Thermomyces lanuginosus lipase (TLLs) (Thermomyces lanuginosus) (protein)
chain: EVSQDLFNQFNLFAQYSAAAYCGKNNDAPAGTNITCTGNACPEVEKADATFLYSFEDSGVGDVTGFLALDNTNKLIVLSFRGSRSIENWIGNLNFDLKEINDICSGCRGHDGFTSSWRSVADTLRQKVEDAVREHPDYRVVFTGHSLGGALATVAGADLRGNGYDIDVFSYGAPRVGNRAFAEFLTVQTGGTLYRITHTNDIVPRLPPREFGYSHSSPEYWIKSGTLVPVTRNDIVKIEGIDATGGNNQPNIPDIPAHLWYFGLIGTCL
notes: commercial free lipase from Novozymes
Q: Which Km does the source give for B1 here?
A: 1396 µM

Q: What about the kcat of the same protein?
A: 22800 s⁻¹
